Measurements taken from patent US20250027068.

target: pooled human IgG (human IgG1, 2, 3 and 4)

Protein | Enzyme Activity Endpoint Assay: Fab′2 | Enzyme Activity Endpoint Assay: Fc | Enzyme Activity Endpoint Assay: IgG | Enzyme Activity Endpoint Assay: scIgG
PRT-567 (protein) MANQEIRYSEETPSTITSVWTKGVTPPTDFIQNEDVLHAPYIANQGWYDITKTFNGKDDLLCGAATAGNMLHWWFDQNKEQIENYLKKHPEKQKINFNGEQMFDVKEAIDTKDSQTDSALFEYFKDKAFPYLSTKHLGVFPDHVIDMFINGYRLSLTNHGPTPVKRGTKDPRGGIFDAVFTRGDQSKLLTSRHDFKEKTLNEISDLIKQELTEGKALGLSHTYANVRINHVINLWGADFNAEGNLEAIYVTDSDSNASIGMKKYYVGVNSAGKVAISAKEIEGDNIGAQVLGLFTLSTGQDIWNQTNLEHHHHHH | 385 ng/µL | 297 ng/µL | 65 ng/µL | 372 ng/µL
PRT-573 (protein) MANQEIRYSEETPSTITSVWTKGVTPPTQFIQNEDVLHAPYIANQGWYDITKTFNGKDDLLCGAATAGNMLHWWFDQNKEQIENYLKKHPEKQKINFNGEQMFDVKEAIDTKDSQTDSALFSYFKDKAFPYLSTKHLGVFPDHVIDMFINGYRLSLTNHGPTPVKRQTKDPRGGIFDAVFTRGDQSKLLTSRHDFKEKTLNEISQLIKQELTEGKALGLSHTYANVRINHVINLWGADFNAEGNLEAIYVTDSDSNASIGMKKYYVGVNSAGKVAISAKEIEGDNIGAQVLGLFTLSTGQDIWQQTNLEHHHHHH | 759 ng/µL | 409 ng/µL | 0 ng/µL | 0 ng/µL
PRT-556 (protein) MANQEIRYSKAKPKVITSVWTKGVTPPTQFTYNEDVFHAPYLPNQGWYDITKTFNGKDDLLCGAATAGNMLHWWFDQNKEQIERYLKEHPEKQKINFNGEQMFDVKEAIDTKDSQTNSKLFNYFKDKAFPYLSTKHLGVFPDHVIDMFINGYRLSLTNHGPTPVKEQNKDPRGGIFDDVFTRGDQSKLLTSRHDFKEKTLKEISDLIKQELKEGKALGLSHTYANVRINHVINLWGADFDAEGNLVAIYVTDSDSNASIGMKKYYVGVNSAGKVAISAKEIEDDNIGAQVLGLFTLSTGKDIWEKTNLEHHHHHH | 570 ng/µL | 351 ng/µL | 16 ng/µL | 200 ng/µL
PRT-541 (protein) MANQEIRYSKNENPNVTIKWVHGIGEPTQAEKEKIEFWWYETTTTKFFNNRKVDHLGDGNQCWAKTDSNMLHWWFVQNEENINQYIAKKNITGKINFNGEQMFDVKEGIDDNQEKEKSYIANTFRTKKAHNLSTKHKGDYIINGLSWYLYGLNNFKIAHGPTPVKKKPKFYGPALFKDVFSRGDGNTPIIVETDFKEYTKKEFEDTLSAALDSKKAIGINIYGSNVDYQHAITLWGAAFDEEENIIAIYVVDNNFKFENRIFPYGIWYQKEGRPYLFNYEINSFVKNRYVGEVTTLDKGEAQWQETNLEHHHHHH | 0 ng/µL | 0 ng/µL | 854 ng/µL | 3 ng/µL
PRT-538 (protein) MANQEIRYSSDSEWANKKVWVYGITPPEEGAWKYSTYYLPWKKEYGWYDCNKRNPTADGMMCWAATASNLLHWWIAQNKEYIDLYGDKYKGPDKINFNGEQMFDVKEYIDPLDKPQESDIFQCFIDKSFADLSTKHEAGYGDEGINWFIHGIIPSSPAHGPTPVKLRKPYNPAGYFKDVFPRGDGVKLLSNNGDFKELGKERFNETIKDALKNKKGIGLSIGPVNVRSGHVVTMWGAEFDENGDVSYIYIADNNDRWGVGCIRYQIVYEEGGTYTCYKTEIINEDRPIPINRLVTLELGEEYWKQTNLEHHHHHH | 5 ng/µL | 0 ng/µL | 1160 ng/µL | 0 ng/µL
PRT-247 (protein) MVTSVWTKGVTPPANFTQGEDVFHAPYVANQGWYDITKLFNGKDDLLCGAATAGNMLHWWFDQNKDQIKRYLEEHPEKQKINFNGEQMFDVKEAIDTKNHQLDSKLFEYFLEKAFPYLSTKHLGVFPDHVIDMFINGYRLSLTNHGPTPVKEGSKDPRGGIFDAVFTRGDQSKLLTSRHDFKEKNLKEISDLIKKELTEGKALGLSHTYANVRINHVINLWGADFDSNGNLKAIAVTDSDSNASIGMKKYFVGVNSSGKVAISAKEIKEDNIGAQVLGLFTLSTGQDSWNQTN | 0 ng/µL | 81 ng/µL | 308 ng/µL | 279 ng/µL
PRT-255 (protein) MVTSVWTKGVTPPTNFTYGEDVLHAPYVANQGWYDITKTFNGKDDLLCGAATAGNMLHWWFDQNKEQIENYLKKHPEKQKINFNGEQMFDVKEAIDTKDSQLDSKLFEYFLEKAFPNLSTKHLGVFPDHVIDMFINGYRLSLLNHGPTPVKRGSKDPRGGIFDAVFTRGDQSKLLTNRHDFKEKTLKEISDLIKQELTEGKALGISHTYANVGINHVINLWGADFDAEGNLEAIAVTDSDSNASIGMKKYFVGVNSSGKVAISAKEIEEDNIGAQVLGLFTLSTGQDIWNQTN | 58 ng/µL | 178 ng/µL | 75 ng/µL | 525 ng/µL
PRT-263 (protein) MVTSVWTKGVTPPTNFTYGEDVLHAPYVANQGWYDITKLFNGKDNLLCGAATAGNMLHWWFDQNKEQIENYLKKHPEKQKINFNGEQLFDVKEAIDTKDSQLDSKLFEYFLEKAFPNLSTKHLGVFPDHVIDMFINGYRLSLLNHGPTPVKRGSKDKRGGIFDAVFTRGVQSKLLTNRHDFKEKTLKEISDLIKQELTEGKALGISHTYANGRINHVINLWGADFDAEGNLEAIAVTDSDTNASIGMKKYFVGVNSSGKVAISAKEIEEDNIGAQVLGLFTLSTGQDIWNQTN | 0 ng/µL | 27 ng/µL | 986 ng/µL | 0 ng/µL
PRT-271 (protein) MVTSVWTKGVTPPTDFIYGEDVLHAPYKAGQGWYDITKLFNGKDDLLCGAATAGNMLHWWFDQNKEQIENYLKKHPEKQKINFNGEQMFDVKEAIDTKDSQLDSKLFDYFKEKAFPYLSTKHLGVFPDHVIDMFINGYRLSLTNHGPTPVKRGSKDPRGGIFDAVFTRGDQSKLLTNRHDLKNKTLKEISDLIKQELTEGKALGISHTYANVRINHVINLWGADFDAEGNLEAIYVTDSDSNPSIGMKKYFVGVNSSGKVAISAKEIEEDNIGAQVLGLFTLSTGQDIWNQTN | 563 ng/µL | 322 ng/µL | 0 ng/µL | 0 ng/µL
PRT-580 (protein) MANQEIRYSEETPKTITSVWTKGVTPPTDFIKNEDVFHAPYVANQGWYDITKTFNGKDDLLCGAATAGNMLHWWFDQNKEEIERYLKKHPEKQKINFNGEQMFDVKEAIDTKDSQTNSKLFEYFKDKAFPYLSTKHLGVFPDHVIDMFINGYRLSLTNHGPTPVKRGTKDPRGGIFDAVFTRGDQSKLLTSRHDFKEKTLKEISDLIKQELQEGKALGLSHTYANVRINHVINLWGADFDSEGNLEAIYVTDSDSNASIGMKKYYVGVNSAGKVAISAKEIEDDNIGAQVLGLFTLSTGKDIWEQTNLEHHHHHH | 566 ng/µL | 282 ng/µL | 0 ng/µL | 0 ng/µL
PRT-528 (protein) MANQEIRYSEETPKTITSVWTKGVTPPTDFIQNEDVLHAPYIANQGWYDITKTFNGKDDLLCGAATAGNMLHWWFDQNKEEIENYLKKHPEKQKINFNGEQMFDVKEAIDTKDSQTDSALFEYFKDKAFPNLSTKHLGVMPDLVLDMFINGYYLSLGKHGPTPVKRGTKDPRGGIFDAVFTRGDQSKLLTARHDFKEKTLNEISDLIKQELTEGKALALSHTYANVRINHVINLWGADFNSEGNLEAIYVTDSDSNASIGMKKYYVGVNAAGKVAISAKEIEGDNIGAQVLGLFTLSTGQDIWEQTNLEHHHHHH | 14 ng/µL | 114 ng/µL | 354 ng/µL | 691 ng/µL
PRT-574 (protein) MANQEIRYSEETPKTITSVWTKGVTPPTDFIYNEDVLHAPYIANQGWYDITKTFNGKDDLLCGAATAGNMLHWWFDQNKEQIERYLKKHPEKQKINFNGEQMFDVKEAIDTKDSQTNSKLFEYFKDKAFPYLSTKHLGVFPDHVIDMFINGYRLSLTNHGPTPVKEQTKDPRGGIFDAVFTRGDQSKLLTSRHDFKEKTLNEISDLIKQELTEGKALGLSHTYANVRINHVINLWGADFDAEGNLEAIYVTDSDSNASIGMKKYYVGVNSAGKVAISAKEIEGDNIGAQVLGLFTLSTGKDIWEQTNLEHHHHHH | 660 ng/µL | 357 ng/µL | 0 ng/µL | 227 ng/µL
PRT-599 (protein) MANQEIRYSEETPSTITSVWTKGVTPPTDFIQNEDVLHAPYIANQGWYDITKTFNGKDDLLCGAATAGNMLHWWFDQNKEQIENYLKKHPEKQKINFNGEQMFDVKEAIDTKDSQTDSALFEYFKDKAFPYLSTKHLGVFPDHVIDMFINGYRLSLTNHGPTPVKRGTKDPRGGIFDAVFTRGDQSKLLTSRHDFKEKTLNEISDLIKQELTEGKALGLSHTYANVRINHVINLWGADFNAEGNLEAIYVTDSDSNASIGMKKYYVGVNSAGKVAISAKEIKGDNIGAQVLGLFTLSTGQDIWNQTNLEHHHHHH | 930 ng/µL | 310 ng/µL | 0 ng/µL | 0 ng/µL
PRT-561 (protein) MANQEIRYSEETPSTITSVWTKGVTPPTQFIYNEDVFHAPYIANQGWYDITKTFNGKDDLLCGAATAGNMLHWWFDQNKEQIENYLKKHPEKQKINFNGEQMFDVKEAIDTKDSQTDSKLFNYFKDKAFPYLSTKHLGVFPDHVIDMFINGYRLSLTNHGPTPVKRQTKDPRGGIFDAVFTRGDQSKLLTSRHDFKEKTLNEISDLIKQELTEGKALGLSHTYANVRINHVINLWGADFDAEGNLEAIYVTDSDSNASIGMKKYYVGVNSAGKVAISAKEIEGDNIGAQVLGLFTLSTGQDIWQQTNLEHHHHHH | 606 ng/µL | 405 ng/µL | 0 ng/µL | 0 ng/µL
